A short description of this data set: protein stability index of a GFP-peptide fusion (GPS, HEK-293T) (PSI 1-6); higher = more stable.
[1] abbreviates: treatment: DMSO, c terminus: native.
Where [2] appears, read: treatment: MLN4924 1 uM, 8 h, c terminus: native.
[3] abbreviates: treatment: DMSO, c terminus: a fixed tail appended.
Setting [4] is: treatment: MLN4924 1 uM, 8 h, c terminus: a fixed tail appended.

± gives the standard deviation.
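Further: 24-mer peptide tiles fused after GFP, lentivirally expressed, FACS-sorted into six equal bins by GFP/DsRed ratio, decoded by Illumina sequencing, PSI is the read-weighted mean bin number.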

For SNFHINVEESVDGQVVSSHKREI [KRT15], the protein stability index runs as follows: under setting [1], 2.91 ± 1; under setting [2], 3.83 ± 1.

The sequence LLRQQLMRAQAQEQERRERREQAA [TFE3] showed a protein stability index under setting [3] of 3.82 ± 0.27 and a protein stability index under setting [4] of 4.2 ± 0.15.

For the sequence NITVQKKVSQWWERLTKQEKRPLF [HACD3], the protein stability index amounted to 2.65 ± 0.18 under setting [3] and 2.91 ± 0.13 under setting [4].

Regarding RRIHSLPQKLLGCSPALKRSHSDS [CDC25A], the protein stability index worked out at 4.89 ± 0.29 under setting [3] and 5.21 ± 0.078 under setting [4].

With MQAAEVFSQKHFPEVVQHEEFILL [KLHL12], the protein stability index reads like this: under setting [3], 2.17 ± 0.48; under setting [4], 2.44 ± 0.73.

With YLLHGLECVVAMHQAQLISKIPHI [EIF5], the protein stability index was found to be 3.37 ± 0.11 under setting [3] and 3 ± 0.25 under setting [4].

The sequence PSFLSQTGHGVSRGPSPVVLGSQD [FCHO1] yielded a protein stability index under setting [3] of 4.33 ± 0.3 and a protein stability index under setting [4] of 4.3 ± 0.32.

For GSEKVTMQNLNDRLASYLDKVRAL [KRT16], the protein stability index was found to be 2.88 ± 0.2 under setting [3] and 2.89 ± 0.25 under setting [4].

The sequence QQLNDYEQLLDVKLALDMEISAYR [LMNB1] gave a protein stability index under setting [3] of 2.95 ± 0.32 and a protein stability index under setting [4] of 2.9 ± 0.31.

For the sequence ISLWPREPPPKSGPSLVPGKTPTV [CD207], the protein stability index by setting is: under setting [3], 3.06 ± 0.18; under setting [4], 3.43 ± 0.084.

KKNWRRVYKSLLLLAYLIRNGSER [CLINT1] had a protein stability index under setting [3] of 2.35 ± 0.65 and a protein stability index under setting [4] of 2.44 ± 0.29.

In the case of PVCRKTSRYRSLRPNRQLGSMVEI [TRIM39], the protein stability index runs as follows: under setting [3], 2.61 ± 0.15; under setting [4], 2.83 ± 0.089.

AAVESVLHLGLPWRMLRPQLVNSS [PPEF2]: the protein stability index is 2.74 ± 0.81 under setting [3] and 2.46 ± 0.41 under setting [4].

VIAINYNEKIYELRVMETKPDKAV [UFD1]: the protein stability index was determined as 1.89 ± 0.27 under setting [3] and 2.39 ± 0.24 under setting [4].

Consider SEDNTSFDRKKKSISLMYGGSKRK [SLA], for which the protein stability index runs as follows: under setting [3], 4.66 ± 0.26; under setting [4], 4.91 ± 0.27.

Regarding EFPESRKPISTKSQFLKHQQTHNI [ZNF649], the protein stability index is 3.72 ± 0.47 under setting [3] and 3.57 ± 0.5 under setting [4].

Turning to ESDTDGAGGNSSSSAAMQSSCSST [CCDC6], the protein stability index was 5.58 ± 0.2 under setting [3] and 5.69 ± 0.3 under setting [4].

In the case of TLSPHQYHSVHGVGMVPEWSDNS [TBX5], the protein stability index under setting [1] is 4.01 ± 0.29 and the protein stability index under setting [2] amounted to 3.8 ± 0.14.

For SFPLEWAPQNLTRWTFEKACHPFL [TOR1AIP2], the protein stability index came out at 2.12 ± 0.093 under setting [3] and 2.31 ± 0.12 under setting [4].

In the case of PAMAASKALGSDLDSSLASLVGNL [SNAP91], the protein stability index was found to be 4.06 ± 0.34 under setting [3] and 3.95 ± 0.34 under setting [4].

As for HMFVWGGYKSNQVRGLYDFYLPRE [KLHDC2], the protein stability index by setting is: under setting [3], 2.24 ± 0.26; under setting [4], 2.19 ± 0.5.

Take GDVHTVRKMLEQGYSPNGRDANGW [ASB7]: the protein stability index by setting is: under setting [3], 3.51 ± 0.23; under setting [4], 3.71 ± 0.24.

For the sequence ELRRNHCFQDFKEEKPQENKTWRE [ELOA2], the protein stability index came to 3.31 ± 0.31 under setting [3] and 3.47 ± 0.41 under setting [4].

Turning to IGMPFNQLGTLAGSKYYNVEAMYC [SMG5], the protein stability index was found to be 2.36 ± 0.51 under setting [3] and 2.27 ± 0.3 under setting [4].

As to APLRKLSVDLIKTYKHINEVYYAK [DYRK1B], the protein stability index turned out to be 2.84 ± 0.15 under setting [3] and 2.96 ± 0.25 under setting [4].

Take LTCALMLLNTDLHGHNIGKKMSCQ [PSD2]: the protein stability index reads like this: under setting [3], 2.54 ± 0.49; under setting [4], 2.41 ± 0.74.

AFLKLAKQRSVCTWGKNKPGIGAV [FAN1]: the protein stability index is 2.76 ± 0.4 under setting [3] and 2.3 ± 0.48 under setting [4].

Regarding IVWSLAFGSSVPEKQSRCVNIEWH [WSB1], the protein stability index is 2.92 ± 0.36 under setting [3] and 2.93 ± 0.21 under setting [4].

Take QMTPTNLAVCLAPSLFHLNTLKRE [DLC1]: the protein stability index is, setting by setting: under setting [3], 2.79 ± 0.044; under setting [4], 2.53 ± 0.036.

For the sequence HGCEYSCVNMDRSFACQCPEGHVL [MATN2], the protein stability index under setting [3] came to 3.57 ± 0.29 and the protein stability index under setting [4] turned out to be 3.61 ± 0.26.

Sequence CEKYLPGYYSEKLEAIQLDGEILF [TBC1D10A] yielded a protein stability index under setting [3] of 2.14 ± 0.19 and a protein stability index under setting [4] of 2.12 ± 0.24.

On to FSAYIDSMAAVPTLELCHDELFAD [CEBPD], for which the protein stability index reads like this: under setting [3], 3.29 ± 0.37; under setting [4], 3.1 ± 0.3.

As for SFPEPEAAQPMTKKRKVDGLSTEA [PRAME], the protein stability index runs as follows: under setting [3], 5.19 ± 0.3; under setting [4], 5.16 ± 0.14.

CRADHGLLLERAAAGSPRSPGPLP [ISL2]: the protein stability index reads like this: under setting [3], 3.47 ± 0.46; under setting [4], 3.1 ± 0.43.

As to SRRYNRKEPAEFNGDGAFLHDNHE [ZNF649], the protein stability index is 4.73 ± 0.43 under setting [3] and 4.45 ± 0.13 under setting [4].

As to RDFDNNTPLHIAAQNNCPAIMNAL [FEM1A], the protein stability index is, setting by setting: under setting [3], 3.36 ± 0.3; under setting [4], 3.46 ± 0.41.

On to EINKRTAAENEFVLLKKDVDAAYA [KRT71], for which the protein stability index is, setting by setting: under setting [3], 3.76 ± 0.26; under setting [4], 4.24 ± 0.24.

Consider QFQDLTGIESMDQCRHTLEQHNWN [FAF2], for which the protein stability index came out at 3.1 ± 0.38 under setting [3] and 3.37 ± 0.13 under setting [4].

Turning to DAAVVRPGFLSTAEEETLSRELEP [ALKBH7], the protein stability index was 5.53 ± 0.063 under setting [3] and 5.42 ± 0.17 under setting [4].

RLRPLTLSTPKPLVDFCNKPILLH [GMPPB] returned a protein stability index under setting [3] of 2.31 ± 0.14 and a protein stability index under setting [4] of 2.46 ± 0.51.

Take DSSHDSARASEGSDSGSDKSLEGG [SMG5]: the protein stability index runs as follows: under setting [3], 5.54 ± 0.31; under setting [4], 5.51 ± 0.31.

Regarding SSDPFYTPEPDTCHELLGHVPLLA [TPH1], the protein stability index was found to be 3.17 ± 0.35 under setting [3] and 3.31 ± 0.15 under setting [4].

Take DTISTIKSVAWEGGACPAFLPSLR [NCF4]: the protein stability index under setting [3] turned out to be 2.92 ± 0.3 and the protein stability index under setting [4] was 2.9 ± 0.38.

Consider SNIDKKFSAHYDAVEAELKSSTVG [FAM50A], for which the protein stability index is, setting by setting: under setting [3], 4.64 ± 0.18; under setting [4], 4.83 ± 0.28.

Regarding VADGLCCVLTTPCLTQSTAAPAVR [SLA], the protein stability index under setting [3] came to 2.5 ± 0.54 and the protein stability index under setting [4] stood at 2.77 ± 0.2.

Turning to SGDRDENSFSLNSSISSSARRTTR [MAP2], the protein stability index by setting is: under setting [3], 5.05 ± 0.28; under setting [4], 4.97 ± 0.32.

The sequence AVIDSEKDMNFLKRYAGREEHWVG [CD69] gave a protein stability index under setting [3] of 2.72 ± 0.39 and a protein stability index under setting [4] of 3.08 ± 0.29.

As for SKTNLIVNYLPQNMTQDEFKSLFG [ELAVL3], the protein stability index is, setting by setting: under setting [3], 2.63 ± 0.28; under setting [4], 2.79 ± 0.22.

Take EHDAWFIFFMAAFAFSNGYLASLC [SLC29A1]: the protein stability index under setting [3] worked out at 3.19 ± 0.5 and the protein stability index under setting [4] came to 3.25 ± 0.48.

Sequence LCREEPVVQGPDGRLELKPLLLRL [FANCE] yielded a protein stability index under setting [3] of 2.19 ± 0.25 and a protein stability index under setting [4] of 2.48 ± 0.15.

DYKLLKPSLAVNLADPYRSLKAPG [JUNB]: the protein stability index under setting [3] worked out at 3.41 ± 0.35 and the protein stability index under setting [4] was 3.35 ± 0.14.

In turn, VAELFCRRCRRCVCALCPVLGAHR [TRIM14] had a protein stability index under setting [3] of 2.25 ± 0.1 and a protein stability index under setting [4] of 2.49 ± 0.39.

Turning to IWLAESVLDILTEQREWVLKSSIL [INTS3], the protein stability index came out at 2.88 ± 0.82 under setting [3] and 2.6 ± 0.84 under setting [4].

With PKGEPGSKQSPPMASSPIQPRKGG [FBF1], the protein stability index is 5.33 ± 0.1 under setting [3] and 5.38 ± 0.091 under setting [4].

Take KFSPFGQWWASVGMDDFLGVYSMP [TLE6]: the protein stability index stood at 2.62 ± 0.67 under setting [3] and 2.35 ± 0.4 under setting [4].

Take LCAIAGVLTIALPVPVIVSNFNYF [KCNA1]: the protein stability index under setting [3] is 3.23 ± 0.18 and the protein stability index under setting [4] was 3.04 ± 0.32.

Take NKGTETDNDPSCVHPIIKRRQCRP [PHTF1]: the protein stability index runs as follows: under setting [3], 4.88 ± 0.085; under setting [4], 4.81 ± 0.21.

Consider MLTVMTKYQANITETQRLGLAMAL [FANCE], for which the protein stability index runs as follows: under setting [3], 2.52 ± 0.43; under setting [4], 2.48 ± 0.25.

MLPGVGVFGTSLTARVIIPLLKDE [GFOD1] gave a protein stability index under setting [3] of 2.17 ± 0.19 and a protein stability index under setting [4] of 2.02 ± 0.16.

On to QIKDFKEKIQQDADSVITVGRGEV [ACBD3], for which the protein stability index turned out to be 5.06 ± 0.18 under setting [3] and 5.06 ± 0.32 under setting [4].

Turning to SLKDGLSDSDSELSSSEGLEPGSA [PSD2], the protein stability index was found to be 5.47 ± 0.28 under setting [3] and 5.6 ± 0.13 under setting [4].

For the sequence CADVILVLQERVRIFAHKIYLSTS [RHOBTB2], the protein stability index stood at 3.01 ± 0.25 under setting [3] and 3.02 ± 0.49 under setting [4].

As to RLEQEIATYRSLLEGQDAKMIGFP [KRT13], the protein stability index is, setting by setting: under setting [3], 3.06 ± 0.1; under setting [4], 3.36 ± 0.34.

As for IREEGRCSSSDDDTDVDMEGLRRR [PBXIP1], the protein stability index reads like this: under setting [3], 5.37 ± 0.25; under setting [4], 5.42 ± 0.36.

As for KAPKKDVIKMLVNDNKVLRYLAVL [EFHC1], the protein stability index reads like this: under setting [3], 2.65 ± 0.49; under setting [4], 2.44 ± 0.58.

AVAGPPAAAEVGGGVGGSSRARSA [ANKRD17] showed a protein stability index under setting [3] of 5.36 ± 0.22 and a protein stability index under setting [4] of 5.14 ± 0.33.

Take WLFGATAVALGGVALSVVIAARN [FKBP8]: the protein stability index runs as follows: under setting [1], 2.51 ± 0.55; under setting [2], 2.59 ± 0.4.

QKLNVFKNFIGLLQNQNFPYPVLF [NLN]: the protein stability index came out at 2.89 ± 1.1 under setting [3] and 2.76 ± 0.46 under setting [4].

DGENVFTGQSKIYSYMSPNKCSGM [KMT5A]: the protein stability index is, setting by setting: under setting [3], 3.3 ± 0.29; under setting [4], 3.3 ± 0.14.

For DGKLSFEEFKAYFADGVLSGEELH [NECAB1], the protein stability index by setting is: under setting [3], 4.23 ± 0.28; under setting [4], 4.14 ± 0.37.

On to HSVLQIRYSGKILKNNETLVQHGV [IQUB], for which the protein stability index was determined as 2.09 ± 0.035 under setting [3] and 2.31 ± 0.28 under setting [4].

Take PEIQKVRAQEREQIKALNNKFASF [KRT71]: the protein stability index under setting [3] turned out to be 3.78 ± 0.32 and the protein stability index under setting [4] is 3.86 ± 0.44.

These data come from the supplement of paper PMC10567573.
